PMC4694753 (Molecular Biology of the Cell, 2016)

Biological target: GFP-VASP (UniProt P50552 1-380)
Test: co-IP

Chain of GFP-VASP (P50552 whole entry): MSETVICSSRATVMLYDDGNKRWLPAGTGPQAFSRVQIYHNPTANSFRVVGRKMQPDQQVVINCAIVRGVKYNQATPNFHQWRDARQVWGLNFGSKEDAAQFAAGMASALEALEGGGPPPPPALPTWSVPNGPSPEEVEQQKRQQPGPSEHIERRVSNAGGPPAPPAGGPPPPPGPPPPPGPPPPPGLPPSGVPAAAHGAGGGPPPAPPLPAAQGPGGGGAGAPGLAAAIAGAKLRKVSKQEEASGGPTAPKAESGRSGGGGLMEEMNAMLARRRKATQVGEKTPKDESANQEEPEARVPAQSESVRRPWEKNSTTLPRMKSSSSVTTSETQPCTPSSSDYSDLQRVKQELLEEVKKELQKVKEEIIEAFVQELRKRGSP

amount coimmunoprecipitated, % relative to GFP-Mena: 8.2 ± 3.3%
B1: endogenous GRASP65 (natural protein)
chain: not shown
